Legend:
[1] = target: HLA-A*3002 (A30) single antigen on beads (human); experiment: Luminex single-antigen regular beads (#7), IVIg 1:4
[2] = target: HLA-A*2902 (A29) single antigen on beads (human); experiment: as above
[3] = target: HLA-B*1516 (B63) (human); experiment: Luminex iBeads (#6), IVIg diluted 1:4
[4] = target: HLA-B*1301 (B13) (human); experiment: Luminex iBeads (#6), IVIg diluted 1:4
[5] = target: HLA-B*0801 (B8) (human); experiment: Luminex iBeads (#6), IVIg diluted 1:4
[6] = target: HLA-B*1402 (B65) (human); experiment: Luminex iBeads (#6), IVIg diluted 1:4
[7] = target: HLA-B*1801 (B18) (human); experiment: Luminex iBeads (#6), IVIg diluted 1:4
[8] = target: HLA-B*1513 (B77) (human); experiment: Luminex iBeads (#6), IVIg diluted 1:4
[9] = target: HLA-B*1502 (B75) (human); experiment: Luminex iBeads (#6), IVIg diluted 1:4
[10] = target: HLA-B*1501 (B62) (human); experiment: Luminex iBeads (#6), IVIg diluted 1:4
[11] = target: HLA-B*1503 (B72) (human); experiment: Luminex iBeads (#6), IVIg diluted 1:4
[12] = target: Serum albumin on negative control beads (HSA/BSA) (human or bovine); experiment: Luminex iBeads (#6), IVIg diluted 1:4
[13] = target: HLA-B*1401 (B64) (human); experiment: Luminex iBeads (#6), IVIg diluted 1:4
[14] = target: HLA-B*1510 (B71) (human); experiment: Luminex iBeads (#6), IVIg diluted 1:4
[15] = target: HLA-B*1511 (B75) (human); experiment: Luminex iBeads (#6), IVIg diluted 1:4
[16] = target: HLA-B*0702 (B7) (human); experiment: Luminex iBeads (#6), IVIg diluted 1:4
[17] = target: HLA-Cw*1203 (Cw12) (human); experiment: Luminex, iBeads (#6), 1:4
[18] = target: Albumin (negative control beads) (human or bovine); experiment: Luminex, iBeads (#6), 1:4
[19] = target: HLA-Cw*0102 (Cw1) (human); experiment: Luminex, iBeads (#6), 1:4
[20] = target: HLA-Cw*0202 (Cw2) (human); experiment: Luminex, iBeads (#6), 1:4
[21] = target: HLA-Cw*0302 (Cw10) (human); experiment: Luminex, iBeads (#6), 1:4
[22] = target: HLA-Cw*0501 (Cw5) (human); experiment: Luminex, iBeads (#6), 1:4
[23] = target: HLA-Cw*0304 (Cw10) (human); experiment: Luminex, iBeads (#6), 1:4
[24] = target: HLA-Cw*1502 (Cw15) (human); experiment: Luminex, iBeads (#6), 1:4
[25] = target: HLA-Cw*0401 (Cw4) (human); experiment: Luminex, iBeads (#6), 1:4
[26] = target: HLA-Cw*0702 (Cw7) (human); experiment: Luminex, iBeads (#6), 1:4
[27] = target: HLA-Cw*1601 (Cw16) (human); experiment: Luminex, iBeads (#6), 1:4
[28] = target: HLA-Cw*0602 (Cw6) (human); experiment: Luminex, iBeads (#6), 1:4
[29] = target: HLA-Cw*0303 (Cw9) (human); experiment: Luminex, iBeads (#6), 1:4
[30] = target: HLA-Cw*1701 (Cw17) (human); experiment: Luminex, iBeads (#6), 1:4
[31] = target: HLA-B*1512 (B76) (human); experiment: iBead MFI against regular-bead MFI, IVIg diluted 1:4
[32] = target: HLA-B*1513 (B77) (human); experiment: as above
[33] = target: HLA-B*1302 (B13) (human); experiment: as above
[34] = target: HLA-B*1503 (B72) (human); experiment: as above
[35] = target: HLA-B*1401 (B64) (human); experiment: as above
[36] = target: HLA-B*1511 (B75) (human); experiment: as above
[37] = target: HLA-Cw*1203 (Cw12) (human); experiment: Luminex, iBead vs regular bead MFI, 1:4
[38] = target: HLA-Cw*1402 (Cw14) (human); experiment: Luminex, iBead vs regular bead MFI, 1:4
[39] = target: HLA-Cw*0102 (Cw1) (human); experiment: Luminex, iBead vs regular bead MFI, 1:4
[40] = target: HLA-Cw*0302 (Cw10) (human); experiment: Luminex, iBead vs regular bead MFI, 1:4
[41] = target: HLA-Cw*0501 (Cw5) (human); experiment: Luminex, iBead vs regular bead MFI, 1:4
[42] = target: HLA-Cw*0304 (Cw10) (human); experiment: Luminex, iBead vs regular bead MFI, 1:4
[43] = target: HLA-Cw*1502 (Cw15) (human); experiment: Luminex, iBead vs regular bead MFI, 1:4
[44] = target: HLA-Cw*0401 (Cw4) (human); experiment: Luminex, iBead vs regular bead MFI, 1:4
[45] = target: HLA-Cw*0702 (Cw7) (human); experiment: Luminex, iBead vs regular bead MFI, 1:4
[46] = target: HLA-Cw*0801 (Cw8) (human); experiment: Luminex, iBead vs regular bead MFI, 1:4
[47] = target: HLA-Cw*0602 (Cw6) (human); experiment: Luminex, iBead vs regular bead MFI, 1:4
[48] = target: HLA-Cw*0303 (Cw9) (human); experiment: Luminex, iBead vs regular bead MFI, 1:4
[49] = target: HLA-Cw*1701 (Cw17) (human); experiment: Luminex, iBead vs regular bead MFI, 1:4

- MFI [1]: 174 MFI
- MFI [2]: 200 MFI
- MFI [3]: 756 MFI
- MFI [4]: 504 MFI
- MFI [5]: 274 MFI
- MFI [6]: 152 MFI
- MFI [7]: 114 MFI
- MFI [8]: 445 MFI
- MFI [9]: 245 MFI
- MFI [10]: 148 MFI
- MFI [11]: 0 MFI
- MFI [12]: 667 MFI
- MFI [13]: 206 MFI
- MFI [14]: 271 MFI
- MFI [15]: 552 MFI
- MFI [16]: 436 MFI
- MFI [17]: 636 MFI
- MFI [18]: 667 MFI
- MFI [19]: 511 MFI
- MFI [20]: 719 MFI
- MFI [21]: 522 MFI
- MFI [22]: 710 MFI
- MFI [23]: 520 MFI
- MFI [24]: 458 MFI
- MFI [25]: 601 MFI
- MFI [26]: 746 MFI
- MFI [27]: 613 MFI
- MFI [28]: 627 MFI
- MFI [29]: 500 MFI
- MFI [30]: 1050 MFI
- Difference % (iBead vs regular bead) [31]: 199%
- Difference % (iBead vs regular bead) [32]: -19%
- Difference % (iBead vs regular bead) [33]: 5%
- Difference % (iBead vs regular bead) [34]: 0%
- Difference % (iBead vs regular bead) [35]: -67%
- Difference % (iBead vs regular bead) [36]: -13%
- Difference % [37]: -35%
- Difference % [38]: -59%
- Difference % [39]: -49%
- Difference % [40]: -49%
- Difference % [41]: -42%
- Difference % [42]: -38%
- Difference % [43]: -41%
- Difference % [44]: -62%
- Difference % [45]: -62%
- Difference % [46]: -42%
- Difference % [47]: -60%
- Difference % [48]: -29%
- Difference % [49]: -29%
Substance: IVIg Sandoglobulin (Novartis, Basel, Switzerland) (antibody)
